To fix the notation:
B1: Azoarcus group I ribozyme (parent)
chain: GUGCCUUGCGCCGGGAAACCACGCAAGGGAUGGUGUCAAAUUCGGCGAAACCUAAGCGCCCGCCCGGGCGUAUGGCAACGCCGAGCCAAGCUUCGGCGCCUGCGCCGAUGAAGGUGUAGAGACUAGACGGCACCCACCUAAGGCAAACGCUAUGGUGAAGGCAUAGUCCAGGGAGUGGCGAAAGUCACACAAACCGG

The variants in this data set derive from B1. Kind of data set: reverse-splicing fitness (ratio to wild type); higher = more active; in vitro selection; Mg2+ level not given. The essentials: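 An in vitro group I ribozyme library with randomized positions was T7-transcribed and gel-purified. In triplicate, 10 pmol RNA in EPPS pH 7.5 was reacted with 50 pmoles of a 30-nt RNA substrate for 1 h at 37 °C across several added MgCl2 levels (1–48 mM), then stopped with EDTA. Products were reverse transcribed from a substrate-complementary primer, PCR-amplified and sequenced (HiSeq 4000). Fitness is a variant's read proportion after selection over that before, normalised to wild type.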
With C82G A111U A120C A145G C150U C169G U176A, the reverse-splicing fitness came to 0.0154.

Consider C82G A111U A120C A145G C150U C169G U176G, for which the reverse-splicing fitness is 0.00632.

As to C82G A111U A120C A145G C150U C169G U176C, the reverse-splicing fitness was found to be 0.0196.

Take C82G A111U A120C A145C C150U C169A U176C: the reverse-splicing fitness came out at 0.0115.

Regarding C82G A111U A120C A145C C150U C169A U176G, the reverse-splicing fitness amounted to 0.00651.

C82G A111U A120C A145C C150U C169A U176A: the reverse-splicing fitness is 0.0164.

C82G A111U A120C A145C C150A C169G U176C: the reverse-splicing fitness was found to be 0.0279.

C82G A111U A120C A145C C150A C169G U176G: the reverse-splicing fitness amounted to 0.00687.

Turning to C82G A111U A120C A145C C150A C169G U176A, the reverse-splicing fitness was 0.0314.

C82G A111U A120C A145C C150G U176C: the reverse-splicing fitness was found to be 0.00843.

With C82G A111U A120C A145C C150G U176A, the reverse-splicing fitness came out at 0.00451.

Regarding C82G A111U A120C A145C C150G U176G, the reverse-splicing fitness turned out to be 0.00354.

As to C82G A111U A120C C150U, the reverse-splicing fitness was 0.0329.

Consider C82G A111U A120C C150A, for which the reverse-splicing fitness was found to be 0.0117.

On to C82G A111U A120C C150G, for which the reverse-splicing fitness was 0.00875.

Take C82G A111U A120C A145C C150G C169A U176C: the reverse-splicing fitness worked out at 0.00917.

For the variant C82G A111U A120C A145C C150G C169A U176G, the reverse-splicing fitness was 0.00634.

For the variant C82G A111U A120C A145C C150G C169A U176A, the reverse-splicing fitness came to 0.0101.

In the case of C82G A111U A120C C169G U176C, the reverse-splicing fitness was determined as 0.0244.

For the variant C82G A111U A120C C169G U176G, the reverse-splicing fitness stood at 0.00577.

Consider C82G A111U A120C C169G U176A, for which the reverse-splicing fitness was determined as 0.0203.

As to C82G A111U A120C A145C C150U C169G, the reverse-splicing fitness came out at 0.00854.

C82G A111U A120C A145C C150U C169U: the reverse-splicing fitness amounted to 0.0113.

C82G A111U A120C A145C C150U C169A: the reverse-splicing fitness was determined as 0.00911.

As to C82G A111U A120C A145U C150A C169G U176C, the reverse-splicing fitness was 0.0247.

Regarding C82G A111U A120C A145U C150A C169G U176A, the reverse-splicing fitness stood at 0.0207.

In the case of C82G A111U A120C A145U C150A C169G U176G, the reverse-splicing fitness was 0.00638.

As for C82G A111U A120C C169G, the reverse-splicing fitness stood at 0.00915.

For C82G A111U A120C C169A, the reverse-splicing fitness worked out at 0.00833.

With C82G A111U A120C C169U, the reverse-splicing fitness came out at 0.0134.

Take C82G A111U A120C A145U C150U: the reverse-splicing fitness worked out at 0.0337.

Turning to C82G A111U A120C A145U C150G, the reverse-splicing fitness was 0.0103.

With C82G A111U A120C A145U C150A, the reverse-splicing fitness amounted to 0.0104.

On to C82G A111U A120C A145C C169A U176C, for which the reverse-splicing fitness came to 0.00941.

For C82G A111U A120C A145C C169A U176A, the reverse-splicing fitness is 0.0193.

Turning to C82G A111U A120C A145C C169A U176G, the reverse-splicing fitness worked out at 0.00544.

Consider C82G A111U A120C A145U C150A C169U U176A, for which the reverse-splicing fitness is 0.0146.

On to C82G A111U A120C A145U C150A C169U U176G, for which the reverse-splicing fitness was 0.00715.

In the case of C82G A111U A120C A145U C150A C169U U176C, the reverse-splicing fitness was 0.0141.

In the case of C82G A111U A120C C150G U176G, the reverse-splicing fitness amounted to 0.00396.

As to C82G A111U A120C C150G U176C, the reverse-splicing fitness stood at 0.009.

C82G A111U A120C C150G U176A: the reverse-splicing fitness amounted to 0.00531.

As to C82G A111U A120C A145G C150G C169U U176C, the reverse-splicing fitness was 0.0123.

With C82G A111U A120C A145G C150G C169U U176A, the reverse-splicing fitness was 0.0139.

As for C82G A111U A120C A145G C150G C169U U176G, the reverse-splicing fitness is 0.00871.

Regarding C82G A111G C150U C169U U176C, the reverse-splicing fitness was 0.0172.

For C82G A111G C150U C169U U176A, the reverse-splicing fitness stood at 0.0147.

For C82G A111G C150U C169U U176G, the reverse-splicing fitness stood at 0.00785.

With C82G A111U A120C A145G C150A U176C, the reverse-splicing fitness was determined as 0.0228.

For the variant C82G A111U A120C A145G C150A U176A, the reverse-splicing fitness is 0.011.

As to C82G A111U A120C A145G C150A U176G, the reverse-splicing fitness is 0.0103.

With C82G A111G C150G U176A, the reverse-splicing fitness was determined as 0.0136.

On to C82G A111G C150G U176C, for which the reverse-splicing fitness worked out at 0.0225.

Take C82G A111G C150G U176G: the reverse-splicing fitness stood at 0.00548.

Regarding C82G A111G C150A C169A U176C, the reverse-splicing fitness worked out at 0.0224.

As for C82G A111G C150A C169A U176A, the reverse-splicing fitness is 0.0211.

For the variant C82G A111G C150A C169A U176G, the reverse-splicing fitness came out at 0.00701.

As to C82G A111U A120C C150G C169U U176G, the reverse-splicing fitness worked out at 0.00705.

As to C82G A111U A120C C150G C169U U176C, the reverse-splicing fitness turned out to be 0.013.

Regarding C82G A111U A120C C150G C169U U176A, the reverse-splicing fitness stood at 0.00756.

Regarding C82G A111U A120C A145G C150U U176G, the reverse-splicing fitness came to 0.00905.

For C82G A111U A120C A145G C150U U176C, the reverse-splicing fitness is 0.0292.

For C82G A111U A120C A145G C150U U176A, the reverse-splicing fitness worked out at 0.015.

In the case of C82G A111U A120C A145G C150A C169G U176A, the reverse-splicing fitness amounted to 0.0181.

With C82G A111U A120C A145G C150A C169G U176G, the reverse-splicing fitness was 0.00823.

As for C82G A111U A120C A145G C150A C169G U176C, the reverse-splicing fitness stood at 0.0297.

Take C82G A111U A120C A145C U176A: the reverse-splicing fitness worked out at 0.0155.

C82G A111U A120C A145C U176G: the reverse-splicing fitness came out at 0.00674.

Turning to C82G A111U A120C A145C U176C, the reverse-splicing fitness came out at 0.0234.

As to C82G A111U A120C A145U C150U U176G, the reverse-splicing fitness was found to be 0.00687.

For C82G A111U A120C A145U C150U U176C, the reverse-splicing fitness was found to be 0.0247.

C82G A111U A120C A145U C150U U176A: the reverse-splicing fitness amounted to 0.015.

Consider C82G A111U A120C A145U C150U C169A U176G, for which the reverse-splicing fitness came out at 0.00636.

On to C82G A111U A120C A145U C150U C169A U176C, for which the reverse-splicing fitness worked out at 0.0135.

For C82G A111U A120C A145U C150U C169A U176A, the reverse-splicing fitness stood at 0.0178.

Consider C82G A111U A120C C150U U176A, for which the reverse-splicing fitness was determined as 0.0133.

C82G A111U A120C C150U U176C: the reverse-splicing fitness came out at 0.0248.

In the case of C82G A111U A120C C150U U176G, the reverse-splicing fitness was determined as 0.00892.

On to C82G A111U A120C C169A U176G, for which the reverse-splicing fitness was determined as 0.00684.

For C82G A111U A120C C169A U176C, the reverse-splicing fitness was 0.0224.

Consider C82G A111U A120C C169A U176A, for which the reverse-splicing fitness was 0.0193.

Regarding C82G A111U A120C A145U, the reverse-splicing fitness worked out at 0.0517.

On to C82G A111U A120C A145G, for which the reverse-splicing fitness turned out to be 0.0543.
